{
  "source": "patent US20190216790A1",
  "about": "“Methods for Treating Pruritis” (The Regents of the University of California, priority 2016, published 2019)",
  "tested_on": "mice",
  "test": "CXCL1-induced itch, subcutaneous injection in mice",
  "assay_type": "in vivo",
  "description": "CXCL1 is the mouse homologue for human Interleukin-8, which is increased in several inflammatory skin disorders including psoriasis and atopic dermatitis. […] Importantly, CXCL1-induced itch is entirely dependent on neutrophils (FIG. 1B). […] In addition, loss of TRPA1 results in reduced CXCL1 expression in skin. Blocking/ablation of the high-affinity LTB4 receptor, BLT1, also results in reduction of CXCL1-induced itch (FIG. 1C). Both LTB4 and reactive oxygen species (ROS) are produced by neutrophils and have been proposed to directly activate neurons and induce itch. It is shown here that neutrophils also play a key role in chronic itch. In a mouse model of atopic dermatitis, depletion of neutrophils during induction of itch drastically reduces itch and inflammatory responses (FIG. 1D). It is shown here that CXCL1 is increased in multiple mouse models of chronic itch, and LTB4 is increased in skin of mice with atopic dermatitis. It is proposed that neutrophils activate sensory neurons through the ion channel TRPA1 in a CXCL1/BLT1/LTB4-dependent fashion (FIG. 1E).\nFIG. 1A-1E. […] (D) Depletion of neutrophils in a mouse model of atopic dermatitis greatly reduces itch. (E) Model showing proposed interactions. Atopic dermatitis results in increased levels of IL8 (humans) or CXCL1 (mice) that recruits neutrophils. Neutrophils activate sensory neurons to promote itch in a TRPA1 and BLT1-dependent manner. For all data, one-way ANOVA was performed with a Tukey-Kramer post hoc statistical analysis. Tukey-Kramer values are reported and only p<0.05 were considered significant; **=p<0.005; ***=p<0.0005; n.s.=not significant.",
  "note": "“Also recorded” adds a separate entry of the source.",
  "data": [
    {"molecule": "CXCL1: a neutrophil chemoattractant and natural ligand for CXCR2; the mouse homologue for human Interleukin-8 (protein, UniProt P12850 25-96, looked up) Growth-regulated alpha protein: APIANELRCQCLQTMAGIHLKNIQSLKVLPSGPHCTQTEVIATLKNGREACLDPEAPLVQKIVQKMLKGVPK", "values": [
      {"measurement": "CXCL1-induced itch", "setting": "depletion of neutrophils (FIG. 1B)", "value": "abolishes CXCL1-induced itch"},
      {"measurement": "itch", "setting": "injected subcutaneously in mice (FIG. 1A)", "value": "robustly induces itch; also recorded: induces robust itch"},
      {"measurement": "itch responses to CXCL1", "setting": "mice lacking TRPA1 (FIG. 1A)", "value": "reduced itch responses"},
      {"measurement": "itch responses to CXCL1 injection", "setting": "mice lacking the LTB4 receptor (BLT1) (FIG. 1C)", "value": "reduced itch responses"}
    ]}
  ]
}
